From article PMC9859754, “Multivalent interactions facilitate motor-dependent protein accumulation at growing microtubule plus-ends” (Nature Cell Biology, 2022)

T1: Full-length S. pombe Mal3, unlabelled (S. pombe, UniProt Q10113 1-308)
T1 construct: Mal3 (EB homologue), Schizosaccharomyces pombe, full length; Scaffold (200 nM) in the scaffold-client assay; also the Mal3 of the cryo-ET samples; also called FL-Mal3; FLMal3; source: E. coli ER2566, purified (Talon resin, eluted with 3C protease, SEC); not shown: His8, N-terminal, cleaved
T1 sequence (looked up): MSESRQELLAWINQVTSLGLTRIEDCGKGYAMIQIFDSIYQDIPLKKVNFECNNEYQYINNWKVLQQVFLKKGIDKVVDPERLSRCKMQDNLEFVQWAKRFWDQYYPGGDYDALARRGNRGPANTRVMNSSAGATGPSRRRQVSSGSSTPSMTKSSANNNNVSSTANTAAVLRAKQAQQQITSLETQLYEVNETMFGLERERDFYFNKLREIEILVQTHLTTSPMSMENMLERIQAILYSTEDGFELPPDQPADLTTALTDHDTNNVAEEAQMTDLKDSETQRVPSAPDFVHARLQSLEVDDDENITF

T2: Tea2-Alexa647 (S. pombe, UniProt Q1MTQ1 1-628, Alexa Fluor 647 (NHS ester labelling, sites not stated))
T2 construct: Tea2 (kinesin-7 homologue), Schizosaccharomyces pombe, full length; also called Tea2-647; source: bacterially expressed, purified (Talon resin, eluted with 3C protease, SEC), labelled with Alexa Fluor 647 NHS ester; not shown: Z-tag, N-terminal, cleaved
T2 sequence (looked up): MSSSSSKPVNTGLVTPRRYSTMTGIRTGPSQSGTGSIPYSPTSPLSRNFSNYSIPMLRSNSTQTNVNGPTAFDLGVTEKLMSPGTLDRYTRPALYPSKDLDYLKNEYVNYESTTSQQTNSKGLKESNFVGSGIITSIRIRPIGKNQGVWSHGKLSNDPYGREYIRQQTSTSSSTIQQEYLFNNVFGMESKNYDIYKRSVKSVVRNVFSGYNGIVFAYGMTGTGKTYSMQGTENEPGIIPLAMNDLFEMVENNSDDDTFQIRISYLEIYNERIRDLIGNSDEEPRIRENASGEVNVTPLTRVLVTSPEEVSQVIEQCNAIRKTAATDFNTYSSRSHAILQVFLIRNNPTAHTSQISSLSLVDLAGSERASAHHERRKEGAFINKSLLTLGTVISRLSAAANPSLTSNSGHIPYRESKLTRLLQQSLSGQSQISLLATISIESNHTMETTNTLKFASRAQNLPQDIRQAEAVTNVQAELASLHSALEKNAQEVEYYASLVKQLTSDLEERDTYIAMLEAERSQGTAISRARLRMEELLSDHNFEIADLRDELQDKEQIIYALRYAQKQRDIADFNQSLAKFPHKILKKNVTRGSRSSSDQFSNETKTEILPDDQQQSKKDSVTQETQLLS


Key:
Settings in all cases: both partners purified
[1] = target: T1, Full-length S. pombe Mal3, unlabelled; experiment: scaffold-client recruitment into condensates (spinning disc confocal microscopy); scaffold condensates of 200 nM FL Mal3, 215 nM Tip1 (each tagged with 2 nM FL Mal3:mCherry) or Tea2-Alexa647, with 2 nM Mal3:GFP construct as client; 1x MRB80, 50 mM KCl, 10% PEG6k, 2 mM ATP, 1 mM GTP, 2 mM dithiothreitol, 0.5 mM β-mercaptoethanol; imaged about 30 min after mixing
Tea2-Alexa647 [2] = target: T2, Tea2-Alexa647; experiment: as above
Tea2-Alexa647 [3] = target: T2, Tea2-Alexa647; experiment: TIRF microscopy of purified fluorescent proteins on microtubules; plus-end-tracking reconstitution without PEG: 200 nM Mal3 or Mal3 construct, 20 nM Tea2, 150 nM Tip1 together on dynamic microtubules grown from surface-bound GMPCPP seeds; MRB80, 50 mM KCl, 14.5 µM tubulin, 0.5 µM rhodamine tubulin, 1 mM GTP, 2 mM ATP, 0.1% methylcellulose

binding result [1]	binding result (Tea2-Alexa647 [2])	binding result (Tea2-Alexa647 [3])	Binder
binds	binds	–	Full-length Mal3:GFP (natural protein, S. pombe, UniProt Q10113 1-308, looked up, Mal3 (EB homologue), Schizosaccharomyces pombe, full length; source: E. coli ER2566, purified (Talon resin, eluted with 3C protease, SEC); not shown: His8, N-terminal, cleaved) MSESRQELLAWINQVTSLGLTRIEDCGKGYAMIQIFDSIYQDIPLKKVNFECNNEYQYINNWKVLQQVFLKKGIDKVVDPERLSRCKMQDNLEFVQWAKRFWDQYYPGGDYDALARRGNRGPANTRVMNSSAGATGPSRRRQVSSGSSTPSMTKSSANNNNVSSTANTAAVLRAKQAQQQITSLETQLYEVNETMFGLERERDFYFNKLREIEILVQTHLTTSPMSMENMLERIQAILYSTEDGFELPPDQPADLTTALTDHDTNNVAEEAQMTDLKDSETQRVPSAPDFVHARLQSLEVDDDENITF
–	–	binds	Mal3-Alexa488 (natural protein, S. pombe, UniProt Q10113 1-308, looked up, Alexa Fluor 488 (TFP ester labelling, sites not stated), Mal3 (EB homologue), Schizosaccharomyces pombe, full length; source: E. coli ER2566, purified (Talon resin, eluted with 3C protease, SEC), labelled with Alexa Fluor 488 TFP ester; not shown: His8, N-terminal, cleaved) MSESRQELLAWINQVTSLGLTRIEDCGKGYAMIQIFDSIYQDIPLKKVNFECNNEYQYINNWKVLQQVFLKKGIDKVVDPERLSRCKMQDNLEFVQWAKRFWDQYYPGGDYDALARRGNRGPANTRVMNSSAGATGPSRRRQVSSGSSTPSMTKSSANNNNVSSTANTAAVLRAKQAQQQITSLETQLYEVNETMFGLERERDFYFNKLREIEILVQTHLTTSPMSMENMLERIQAILYSTEDGFELPPDQPADLTTALTDHDTNNVAEEAQMTDLKDSETQRVPSAPDFVHARLQSLEVDDDENITF
